System: Escherichia coli TOP10
Test: shrunken log2 fold change of peptide-encoding DNA abundance (4.5 h post-induction vs induction); higher = less antimicrobial activity (less host growth inhibition)
Details: time post-induction: 4.5 h; library: site-saturation at positions 5, 18, 19, 20
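Also: peptides expressed intracellularly from a pBAD plasmid library in pooled LB shake-flask culture, induced with 0.3% L-arabinose, DNA abundance read by NGS, three biological replicates, DESeq2 with apeglm shrinkage.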

Sequence | shrunken log2 fold change
RRIRCRPPRLPRPRPRPCFVPRP | -0.235
RRIRLRPPRLPRPRPRPEYIPRP | -0.312
RRIRMRPPRLPRPRPRPRYNPRP | -0.151
RRIRNRPPRLPRPRPRPWWVPRP | -0.226
RRIRARPPRLPRPRPRPILCPRP | 0.165
RRIRKRPPRLPRPRPRPINFPRP | -0.962
RRIRWRPPRLPRPRPRPCDVPRP | -0.00226
RRIRDRPPRLPRPRPRPQCGPRP | 0.192
RRIRVRPPRLPRPRPRPFLFPRP | -0.205
RRIRSRPPRLPRPRPRPLVQPRP | -0.0825
RRIRKRPPRLPRPRPRPRTNPRP | 0.238
RRIRERPPRLPRPRPRPLGGPRP | -0.073
RRIRRRPPRLPRPRPRPRDMPRP | 0.186
RRIRERPPRLPRPRPRPHSFPRP | 0.0142
RRIRDRPPRLPRPRPRPPYCPRP | -0.0939
RRIRDRPPRLPRPRPRPSPVPRP | 0.0438
RRIRFRPPRLPRPRPRPLCAPRP | -0.0266
RRIRARPPRLPRPRPRPGNKPRP | -0.186
RRIRIRPPRLPRPRPRPEMMPRP | 0.0516
RRIRNRPPRLPRPRPRPCMEPRP | -0.206
RRIRLRPPRLPRPRPRPNFVPRP | -0.196
RRIRNRPPRLPRPRPRPDWYPRP | -0.0314
RRIRWRPPRLPRPRPRPGCHPRP | 0.253

Sequence | shrunken log2 fold change
RRIRFRPPRLPRPRPRPTYAPRP | -0.203
RRIRHRPPRLPRPRPRPQAEPRP | -0.0254
RRIRSRPPRLPRPRPRPDRRPRP | -0.0434
RRIRARPPRLPRPRPRPVDLPRP | 0.174
RRIRDRPPRLPRPRPRPTWAPRP | 0.168
RRIRVRPPRLPRPRPRPLVKPRP | -0.0152
RRIRQRPPRLPRPRPRPMPWPRP | 0.117
RRIRRRPPRLPRPRPRPDPIPRP | 0.227
RRIRWRPPRLPRPRPRPPFHPRP | 0.0947
RRIRCRPPRLPRPRPRPKQMPRP | 0.364
RRIRIRPPRLPRPRPRPCKRPRP | 0.0279
RRIRSRPPRLPRPRPRPNDTPRP | -0.437
RRIRVRPPRLPRPRPRPREDPRP | 0.489
RRIRYRPPRLPRPRPRPTIEPRP | -0.391
RRIRQRPPRLPRPRPRPLRHPRP | 0.323
RRIRKRPPRLPRPRPRPMCDPRP | -0.0708
RRIRQRPPRLPRPRPRPEAAPRP | 0.751
RRIRERPPRLPRPRPRPCWNPRP | -0.107
RRIRDRPPRLPRPRPRPRFAPRP | 0.327
RRIRWRPPRLPRPRPRPGCWPRP | 1.09
RRIRGRPPRLPRPRPRPNYAPRP | 0.0408
RRIRLRPPRLPRPRPRPDSNPRP | -0.0277
RRIRGRPPRLPRPRPRPQGAPRP | 0.807

Sequence | shrunken log2 fold change
RRIRGRPPRLPRPRPRPGFMPRP | 0.488
RRIRVRPPRLPRPRPRPHFRPRP | -0.0776
RRIRFRPPRLPRPRPRPVGCPRP | -0.0325
RRIRARPPRLPRPRPRPYAMPRP | 0.0392
RRIRMRPPRLPRPRPRPEDRPRP | -0.0526
RRIRARPPRLPRPRPRPSMDPRP | 1.4
RRIRKRPPRLPRPRPRPQALPRP | 0.228
RRIRCRPPRLPRPRPRPYAYPRP | -0.208
RRIRQRPPRLPRPRPRPHWGPRP | 0.0433
RRIRYRPPRLPRPRPRPAANPRP | -0.0861
RRIRMRPPRLPRPRPRPSKWPRP | -0.104
RRIRARPPRLPRPRPRPIPIPRP | 0.354
RRIRSRPPRLPRPRPRPALHPRP | 0.16
RRIRFRPPRLPRPRPRPACDPRP | 0.103
RRIRMRPPRLPRPRPRPNNMPRP | -0.309
RRIRGRPPRLPRPRPRPDGHPRP | 0.471
RRIRYRPPRLPRPRPRPMDMPRP | -0.00926
RRIRWRPPRLPRPRPRPAYLPRP | -0.108
RRIRHRPPRLPRPRPRPFAWPRP | -0.186
RRIRHRPPRLPRPRPRPQNYPRP | -1.11
RRIRDRPPRLPRPRPRPGCTPRP | 0.727
RRIRQRPPRLPRPRPRPLPNPRP | 0.0261
RRIRVRPPRLPRPRPRPGQFPRP | -0.156

Sequence | shrunken log2 fold change
RRIRGRPPRLPRPRPRPHREPRP | 0.121
RRIRCRPPRLPRPRPRPYNCPRP | -0.195
RRIRSRPPRLPRPRPRPWSLPRP | -0.0411
RRIRDRPPRLPRPRPRPEQVPRP | 0.015
RRIRYRPPRLPRPRPRPKPTPRP | 0.278
RRIRYRPPRLPRPRPRPHIIPRP | -0.501
RRIRKRPPRLPRPRPRPDLWPRP | 0.123
RRIRERPPRLPRPRPRPCAYPRP | -1.05
RRIRSRPPRLPRPRPRPDFIPRP | 0.00191
RRIRDRPPRLPRPRPRPHMGPRP | -0.174
RRIRYRPPRLPRPRPRPQGQPRP | -0.262
RRIRRRPPRLPRPRPRPEMHPRP | 0.705
RRIRKRPPRLPRPRPRPYYMPRP | -0.405
RRIRRRPPRLPRPRPRPAMQPRP | 0.423
RRIRCRPPRLPRPRPRPYHCPRP | -0.271
RRIRSRPPRLPRPRPRPWKEPRP | -0.0075
RRIRIRPPRLPRPRPRPHPAPRP | -0.516
RRIRCRPPRLPRPRPRPEQRPRP | 0.23
RRIRGRPPRLPRPRPRPINCPRP | -0.0247
RRIRYRPPRLPRPRPRPLVLPRP | -0.206
RRIRKRPPRLPRPRPRPEKAPRP | 0.0283
RRIRDRPPRLPRPRPRPVDMPRP | 0.0154
